US8889620B2, “Pharmaceutical compositions comprising peptide antagonists of vascular endothelial growth factor” (Children's Medical Center Corporation, priority 1997, dated 2014)
Entries after “also recorded” stand apart in the source; their conditions may differ. Where no end group is shown, it is not given here.

Experiments:
[1] = target: T1, KDR/Flk-1 and VEGF165R on HUVEC (Homo sapiens, UniProt O14786); experiment: Inhibition of 125I-VEGF165 binding to HUVEC
T1 construct: HUVEC, which express both KDR/Flk-1 and VEGF165R; endogenous in cells; host or cells: HUVEC (ATCC)
T1 sequence (O14786 22-923): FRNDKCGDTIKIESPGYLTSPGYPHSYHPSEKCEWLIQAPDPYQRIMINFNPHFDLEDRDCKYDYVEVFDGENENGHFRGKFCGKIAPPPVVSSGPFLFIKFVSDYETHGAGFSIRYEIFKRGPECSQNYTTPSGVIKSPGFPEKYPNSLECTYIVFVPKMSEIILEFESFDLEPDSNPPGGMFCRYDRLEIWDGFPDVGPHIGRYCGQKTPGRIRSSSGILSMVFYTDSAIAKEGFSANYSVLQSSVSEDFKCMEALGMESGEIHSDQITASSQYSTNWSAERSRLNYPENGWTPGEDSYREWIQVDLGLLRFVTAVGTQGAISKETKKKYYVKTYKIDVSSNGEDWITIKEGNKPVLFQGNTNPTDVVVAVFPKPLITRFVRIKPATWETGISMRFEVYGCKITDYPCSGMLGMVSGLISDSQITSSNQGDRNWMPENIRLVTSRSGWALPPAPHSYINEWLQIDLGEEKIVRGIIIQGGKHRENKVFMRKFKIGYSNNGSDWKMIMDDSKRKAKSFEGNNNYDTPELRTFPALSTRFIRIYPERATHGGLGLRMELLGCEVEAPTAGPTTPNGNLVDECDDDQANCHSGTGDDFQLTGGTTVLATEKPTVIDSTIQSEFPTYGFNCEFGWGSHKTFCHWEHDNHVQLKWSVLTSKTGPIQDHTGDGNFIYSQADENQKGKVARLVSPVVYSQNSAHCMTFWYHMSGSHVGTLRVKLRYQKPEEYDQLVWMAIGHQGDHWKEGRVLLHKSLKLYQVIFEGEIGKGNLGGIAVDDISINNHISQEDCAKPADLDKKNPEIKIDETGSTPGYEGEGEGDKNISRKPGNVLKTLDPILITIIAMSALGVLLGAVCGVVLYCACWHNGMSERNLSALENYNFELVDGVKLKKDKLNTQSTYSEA
Description: (§1) FIGS. 3A-3C. Inhibition of ^125I-VEGF165 binding to HUVEC, MDA MB 231 cells, and PAE-KDR cells by GST-EX 7+8. ^125I-VEGF165 (5 ng,/ml) was bound to subconfluent cultures of HUVEC (3A), MDA MB 23 1 cells (3B), and PAE-KDR cells (3C) in 48-well dishes in the presence of increasing amounts of GST-Ex 7+8 (closed 20 square) or control GST protein (open squares). At the end of a 2-h incubation, the cells were washed and lysed, and the cell-associated radioactivity was determined with a γ-counter. The counts obtained are expressed as the percentage of the counts obtained in the presence of PBS without addition of GST or fusion protein.
FIGS. 5A and 5B. Localization of a core inhibitory region within exon 7. GST-Ex 7 fusion proteins containing full-length exon 7-encoded domain or truncations at the N-terminal and C-terminal ends were prepared as described in the Examples. ^125I-VEGF165 (5 ng/ml) was bound to subconfluent HUVEC cultures as described in FIG. 3, in the presence of increasing concentrations of the GST fusion proteins. At the end of a 2-h incubation, the cells were washed and lysed, and the cell-associated radioactivity was determined with a y counter. The counts obtained are expressed as percentage of the counts obtained in the presence of PBS without fusion protein B, the amino acid sequences of VEGF exon 7 derivatives. These derivatives were prepared to contain the first cysteine residue of exon 8 at their C termini to keep an even number of cysteine residue. FIG. 5B discloses SEQ ID NO: 19.
(§2) Binding and cross-linking experiments using 125I-VEGF165 and 125I-VEGF121 were performed at described previously (Gitay-Goren, et al., J. Biol. Chem., 287, 6003-6096 (1992), Soker, et al., J: Biol. Chem., 271,5761-5767 (1996)). VEGF binding was quantified by measuring the cell-associated radioactivity in a y-counter (Beckman, Gamma 5500). The counts represent the average of three walls. All experiments were repeated at least three times, and similar results were obtained. 125I-VEGF cross-linked complexes were resolved by 6% SDS-PAGE, and the gels were exposed to a phosphor screen and scanned after 24 h by a PhosphorImager (Molecular Dynamics). Subsequently, the gels were exposed to x-ray film.

VEGF165R on 231 cells [2] = target: T2, VEGF165R on 231 cells (Homo sapiens, UniProt O14786); experiment: Inhibition of 125I-VEGF165 binding to MDA-MB-231 (231) cells
T2 construct: to 231 cells which express only VEGF165R; endogenous in cells; host or cells: MDA-MB-231 (ATCC)
T2 sequence (O14786 22-923): as above
Description: as §1, §2

[3] = target: T3, KDR/Flk-1 on PAE-KDR cells (Homo sapiens, UniProt P35968); experiment: Inhibition of 125I-VEGF165 binding to PAE-KDR cells; set-up: species or system porcine endothelial cells transfected to express KDR/Flk-1
T3 construct: expressed in transfected cells; host or cells: porcine endothelial cells (PAE), gift of Dr. Claesson-Welsh
T3 sequence (P35968 20-1356): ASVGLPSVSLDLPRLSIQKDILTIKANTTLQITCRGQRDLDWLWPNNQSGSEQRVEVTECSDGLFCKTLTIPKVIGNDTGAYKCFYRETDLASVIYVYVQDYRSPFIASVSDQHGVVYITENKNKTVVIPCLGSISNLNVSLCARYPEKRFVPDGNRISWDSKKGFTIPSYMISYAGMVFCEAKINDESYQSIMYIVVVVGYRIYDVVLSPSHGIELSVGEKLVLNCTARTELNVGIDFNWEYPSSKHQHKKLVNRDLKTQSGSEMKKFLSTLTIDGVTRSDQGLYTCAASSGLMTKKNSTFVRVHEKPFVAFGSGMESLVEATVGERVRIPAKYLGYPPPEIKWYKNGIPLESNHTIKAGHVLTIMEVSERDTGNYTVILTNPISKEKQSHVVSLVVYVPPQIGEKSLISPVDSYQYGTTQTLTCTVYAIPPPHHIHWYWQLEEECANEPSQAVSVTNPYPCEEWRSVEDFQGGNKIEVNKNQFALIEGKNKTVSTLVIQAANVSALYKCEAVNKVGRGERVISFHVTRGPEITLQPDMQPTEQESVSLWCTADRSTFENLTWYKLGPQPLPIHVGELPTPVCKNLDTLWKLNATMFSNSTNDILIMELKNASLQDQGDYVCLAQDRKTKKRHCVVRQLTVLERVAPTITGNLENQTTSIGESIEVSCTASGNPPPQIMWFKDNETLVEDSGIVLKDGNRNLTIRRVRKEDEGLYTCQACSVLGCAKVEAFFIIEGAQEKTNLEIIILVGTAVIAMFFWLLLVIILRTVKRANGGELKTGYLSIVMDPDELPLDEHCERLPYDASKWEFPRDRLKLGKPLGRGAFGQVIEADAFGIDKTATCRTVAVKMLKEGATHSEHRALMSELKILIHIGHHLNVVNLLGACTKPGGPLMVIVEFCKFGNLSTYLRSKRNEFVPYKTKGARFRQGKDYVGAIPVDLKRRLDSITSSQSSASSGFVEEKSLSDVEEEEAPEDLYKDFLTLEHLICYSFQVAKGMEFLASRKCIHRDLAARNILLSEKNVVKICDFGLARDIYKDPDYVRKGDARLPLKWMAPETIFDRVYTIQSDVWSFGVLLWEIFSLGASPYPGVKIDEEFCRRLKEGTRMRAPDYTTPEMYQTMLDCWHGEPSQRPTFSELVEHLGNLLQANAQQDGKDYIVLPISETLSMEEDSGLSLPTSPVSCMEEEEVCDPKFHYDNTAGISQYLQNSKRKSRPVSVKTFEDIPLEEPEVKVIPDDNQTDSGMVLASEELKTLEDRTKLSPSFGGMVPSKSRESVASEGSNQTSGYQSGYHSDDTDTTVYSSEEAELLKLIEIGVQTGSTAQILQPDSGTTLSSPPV
Description: as §1
Human umbilical vein endothelial cells (HUVEC) were obtained from the American Type Culture Collection (ATCC) (Rockville, Md.) and grown on gelatin-coated dishes in M-199 medium containing 20% fetal calf serum (FCS) and a mixture of glutamine, penicillin, and streptomycin (GPS). Basic FGF (1 nglml) was added to the culture medium every other day. Porcine endothelial cells (PAE), parental and transfected to express KDRElk-1 (PAE-KDR), were kindly provided by Dr. Lema Claesson-Welsh and grown in F12 medium containing 10% FCS and GPS as described (Waltenberger, et al., J. Biol. Chem., 269,26988-26995 (1994)). MDAMB-231 (231) cells were obtained from ATCC and grown in Bulbecoo's modified Eagle's medium containing 10% FCS and GPS.
as §2

[4] = tested on: VEGF165-induced proliferation of HUVEC; experiment: Inhibition of VEGF165-stimulated HUVEC proliferation; type: cell-based, human; settings: even at 25 ug/ml
Description: (§3) FIG. 6. GST-Ex 7+8 fusion protein inhibits VEGF165-stimulated HUVEC proliferation. HUVEC were cultured in 96-well dishes (5,000 cell/well) as in FIG. 2. Increasing concentrations of VEGF165 (open circles), together with 15 ug/ml GST-Ex 7+8 (closed circles) or 25 ug/ml GST (squares), were added to the medium, and the cells were incubated for 4 more days. DNA synthesis was measured in HUVEC as described in FIG. 2. The results represent the average counts of three wells, and the standard deviations were determined.
FIG. 7. GST-Ex 7+8 fusion protein inhibits VEGF165 and VEGF121-stimulated HUVEC proliferation. Increasing concentration of VEGF165 (circles) or VEGF121 (square) with 15 ug/ml GST-Ex 7+8 (closed symbols) or without GST-Ex 7+8 (open symbols) were added to HUVEC, and [*H]thymidine incorporation into the DNA was measured as in FIG. 2. The results represent the average counts of three wells and the standard deviations were determined.
(§4) HUVEC were seeded in gelatin-coated 96-well dishes at 4,000 cells/200 Ul/well in M-199 containing 5% FCS and GPS. After 24 H, VEGF isoforms and VEGF exon 7-GST fusion proteins were added to the wells at the same time. The cells were incubated for 72 h, and [3H]thymidine (1 pC/ml) was added for 10-12 h. The medium was aspirated, and the cells were trypsinized and harvested by an automatic cell harvester (TOMTEC) and loaded onto Filtermats (Wallac). The Filtermats were scanned and cpm were determined by a MicroBeta counter (Wallac). The results represent the average of samples assayed in triplicate, and the standard derivations were determined. All experiments were repeated at least three times and similar results were obtained.

VEGF165R on 231 cells [5] = target: T2, VEGF165R on 231 cells; settings: Soker et al., J. Biol. Chem. 271, 5761-5767 (1996); cited from earlier work
VEGF165R = VEGF165R (Homo sapiens, UniProt O14786); experiment: Direct binding/cross-linking of 125I-GST-Ex 7 to HUVEC: VEGF165R; set-up: HUVEC, which express both KDR/Flk-1 and VEGF165R; endogenous in cells; host or cells: HUVEC (ATCC); settings: cross-linking, 1 ug/ml heparin, FIG. 1 lane 3; listed as exon 7 fusion protein
Chain of VEGF165R (O14786 22-923): as the sequence (O14786 22-923) above
Description: (§5) FIG. 1. Cross-linking of 1 ^125I-VEGF165, ^125I-VEGF121 and ^125I-GST-EX 7 to HUVEC. ^125I-VEGF165 (5 ng/ml) (lane 1) or ^125I-VEGF121 (10 ng/ml) (lane 2) or ^125I-GST-EX 7 (50 nglml) (lane 3) were bound to subconfluent cultures of HUVEC in 6-cm dishes. The binding was carried out in the presence of 1 ug/ml heparin. At the end of a 2-H incubation, each ^125I-VEGF isoform was chemically cross-linked to the cell surface. The cells were lysed and proteins were resolved by 6% SDS-PAGE. The polyacrylamide gel was dried and exposed to x-ray film.
as §2

KDR/Flk-1 = KDR/Flk-1 (Homo sapiens, UniProt P35968); experiment: Direct binding/cross-linking of 125I-GST-Ex 7 to HUVEC: KDR/Flk-1; set-up: HUVEC, which express both KDR/Flk-1 and VEGF165R; endogenous in cells; host or cells: HUVEC (ATCC); settings: cross-linking, 1 ug/ml heparin, FIG. 1 lane 3; listed as exon 7 fusion protein
Chain of KDR/Flk-1 (P35968 20-1356): as the sequence (P35968 20-1356) above
Description: as §5, §2

HUVEC = HUVEC proliferation ([3H]thymidine incorporation) in response to VEGF isoforms; type: cell-based, human
Description: FIG. 2. HUVEC proliferation in response to VEGF165 and VEGF121 HUVEC were cultured in 96-well dishes (5,000 cell/well) for 24 h. Increasing amounts of VEGF165 (closed circles) or VEGF121 (open circles) were added to the medium, and the cells were incubated for 3 more days. DNA synthesis based on the incorporation of [3H] thymidine into HUVEC DNA was measured as described in the Examples. The results represent the average counts in three wells, and the standard deviations were determined.
as §3, §4

[6] = control GST protein, even at 20 μg/ml

Molecule: GST protein: glutathione S-transferase alone, control protein prepared in a similar way [reference compound]
- effect of GST alone on 125I-VEGF165 binding to HUVEC (in words) [1, 6]: no significant effect; also recorded: did not inhibit
- effect of GST alone on 125I-VEGF165 binding to 231 cells (in words) (VEGF165R on 231 cells [2]; [6]): no significant effect; also recorded: did not inhibit
- effect of GST alone on 125I-VEGF165 binding to PAE-KDR cells (in words) [3, 6]: no significant effect; also recorded: did not inhibit
- inhibition of HUVEC proliferation by GST alone (in words) [4]: did not inhibit

Molecule: GST-Ex 7: GST fusion protein with the entire 44 amino acid VEGF exon 7-encoded domain plus first cysteine residue of exon 8
- inhibition of 125I-VEGF165 binding to HUVEC ([1]; 2 ug/ml fusion protein, FIG. 5): 80%
- inhibition of 125I-VEGF165 binding to HUVEC ([1]; 125I-VEGF165 5 ng/ml, increasing concentrations of fusion protein, FIG. 3A): 85-95%
- inhibition of 125I-VEGF165 binding to HUVEC compared with GST-Ex 7+8 (in words) ([1]; data not shown): comparable to that of GST-Ex 7+8
- inhibition of 125I-VEGF165 binding to 231 cells (VEGF165R on 231 cells [2]; 125I-VEGF165 5 ng/ml, increasing concentrations of fusion protein, FIG. 3B): 98%
- inhibition of 125I-VEGF165 binding to 231 cells compared with GST-Ex 7+8 (in words) (VEGF165R on 231 cells [2]; data not shown): comparable to that of GST-Ex 7+8
- inhibition of 125I-VEGF165 binding to PAE-KDR cells (in words) ([3]; 125I-VEGF165 5 ng/ml, FIG. 3C): did not, however, inhibit at all
- direct binding to VEGF165R on 231 cells (in words) (VEGF165R on 231 cells [5]): binds directly
- direct binding to VEGF165R on HUVEC (in words) (VEGF165R): binds directly; also recorded: could bind
- direct binding to KDR/Flk-1 on HUVEC (in words) (KDR/Flk-1): not and does not bind directly

Molecule: GST-Ex 7d-(1-10): GST-exon 7 fusion protein with the first 10 N-terminal amino acids of exon 7 deleted (HLFVQDPQTCKCSCKNTDSRCKARQLELNERTCRC; cysteine pairing not given here; also: GST fusion protein, side of fusion not given here)
- inhibitory activity on 125I-VEGF165 binding to HUVEC after deletion in exon 7, versus GST-Ex 7 (in words) ([1]; FIG. 5, increasing concentrations): did not reduce the inhibitory activity

Molecule: VEGF165: human recombinant vascular endothelial growth factor 165 isoform produced in Sf-21 insect cells
- increase in the proliferation rate of HUVEC (HUVEC; 1-5 ng/ml VEGF165, FIG. 6): 5.5 fold
- concentration at which the proliferation increase peaks (HUVEC; FIG. 6): 2.5 ng/mL
- concentration for maximal stimulation of DNA synthesis (HUVEC; HUVEC, FIG. 2): 4 ng/mL
- increase in HUVEC proliferation over control at maximal stimulation (HUVEC; HUVEC, FIG. 2): 8 fold
- concentration for half-maximal stimulation of DNA synthesis (HUVEC; HUVEC, [3H]thymidine incorporation, FIG. 2): 1 ng/mL

B1: VEGF121: human recombinant vascular endothelial growth factor 121 isoform produced in Sf-21 insect cells (protein)
chain: APMAEGGGQNHHEVVKFMDVYQRSYCHPIETLVDIFQEYPDEIEYIFKPSCVPLMRCGGCCNDEGLECVPTEESNITMQIMRIKPHQGQHIGEMSFLQHNKCECRPKKDRARQEKCDKPRR
- concentration for maximal stimulation of DNA synthesis (HUVEC; HUVEC, FIG. 2): 20 ng/mL
- increase in HUVEC proliferation over control at maximal stimulation (HUVEC; HUVEC, FIG. 2): 4 fold
